Laboratory results published in the supplement of paper PMC9876800.

Test system: peptide library, one residue held at a place counted from the S/T acceptor
Experiment: relative phosphorylation of the sub-library (ratio to the mean residue at this position); higher = residue favoured
Details: human
In short: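 Relative sub-library phosphorylation, a ratio to the mean residue at that position, was obtained by phosphorimaging and densitometry of spots on streptavidin membranes. Before capture, purified recombinant kinases were incubated for 90 min under kinase-specific conditions with 50 μM biotinylated degenerate peptide sub-libraries and 50 μM ATP spiked with γ-32P-ATP. Each sub-library fixed one residue at one position around a central Ser/Thr.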

CSNK1A1, construct: Full length, sequence (P48729 whole entry, looked up): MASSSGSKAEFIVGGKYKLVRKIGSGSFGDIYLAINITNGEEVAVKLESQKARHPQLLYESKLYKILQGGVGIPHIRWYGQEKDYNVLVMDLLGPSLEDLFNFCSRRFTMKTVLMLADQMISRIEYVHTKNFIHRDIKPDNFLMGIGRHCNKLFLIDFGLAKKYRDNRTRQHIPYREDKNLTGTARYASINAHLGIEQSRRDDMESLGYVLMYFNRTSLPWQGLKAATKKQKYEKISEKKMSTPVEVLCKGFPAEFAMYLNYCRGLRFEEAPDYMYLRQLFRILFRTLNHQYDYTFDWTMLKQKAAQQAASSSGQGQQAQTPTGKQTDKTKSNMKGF
TAOK1, construct: aa1-356, sequence (Q7L7X3 1-356, looked up): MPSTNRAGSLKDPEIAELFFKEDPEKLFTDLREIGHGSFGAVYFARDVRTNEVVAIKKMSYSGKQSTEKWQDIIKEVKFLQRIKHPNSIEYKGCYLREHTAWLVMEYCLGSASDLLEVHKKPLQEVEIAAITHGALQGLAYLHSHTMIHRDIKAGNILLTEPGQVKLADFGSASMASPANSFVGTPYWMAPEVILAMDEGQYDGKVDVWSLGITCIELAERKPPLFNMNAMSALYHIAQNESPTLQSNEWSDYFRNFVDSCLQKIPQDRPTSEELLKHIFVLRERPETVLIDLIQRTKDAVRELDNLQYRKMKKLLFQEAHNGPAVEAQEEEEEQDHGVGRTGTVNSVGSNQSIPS
CDK13, construct: aa694-1039, sequence (Q14004 694-1039, looked up): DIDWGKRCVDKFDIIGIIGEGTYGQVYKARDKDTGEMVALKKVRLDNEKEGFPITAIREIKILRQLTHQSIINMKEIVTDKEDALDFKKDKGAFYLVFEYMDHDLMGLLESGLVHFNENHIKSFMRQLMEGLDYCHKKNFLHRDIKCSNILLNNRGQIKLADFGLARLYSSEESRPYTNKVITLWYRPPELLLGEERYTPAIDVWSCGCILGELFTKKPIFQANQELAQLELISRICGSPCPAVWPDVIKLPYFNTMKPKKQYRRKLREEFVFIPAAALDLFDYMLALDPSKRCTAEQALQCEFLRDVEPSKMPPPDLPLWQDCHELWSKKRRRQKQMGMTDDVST

CDK13, construct: aa694-1039 (from UniProt Q14004)
relative phosphorylation
Details	at +1	at +2	at +3	at +4	at -1	at -2	at -3	at -4	at -5
A fixed	0.344	0.946	0.818	0.867	1.13	1.18	1.03	1.07	1.13
D fixed	0.22	0.631	0.449	1.07	0.485	0.477	0.742	0.927	0.951
E fixed	0.222	0.569	0.42	0.973	0.492	0.515	0.76	0.983	0.817
F fixed	0.319	1.03	0.579	0.816	0.876	0.712	0.85	1.17	1.23
G fixed	0.908	1.27	0.797	1.33	1.45	1.77	2.11	1.16	0.982
H fixed	0.301	1.17	1.71	1.44	0.893	0.831	0.889	1.02	1.1
I fixed	0.293	0.835	0.822	0.746	0.382	0.933	0.995	0.868	0.933
K fixed	0.307	1.31	0.993	0.893	1.12	0.542	0.581	0.846	0.837
L fixed	0.348	0.845	0.558	0.743	0.845	1.03	0.922	0.953	0.923
M fixed	0.336	1.11	0.506	0.824	1.64	1.31	0.965	1.01	0.855
N fixed	0.305	1.02	0.739	1.01	0.968	0.685	0.696	0.889	0.784
P fixed	11.6	0.82	1.41	0.98	1.02	1.71	1.44	1.15	1.17
Q fixed	0.287	0.8	0.764	0.903	1.18	0.736	0.672	0.753	0.933
R fixed	0.315	1.7	4.1	0.956	1.68	1.16	1.2	0.861	0.898
V fixed	0.315	0.812	0.717	0.779	0.511	0.942	0.877	0.825	0.929
W fixed	0.306	0.937	0.82	1.59	1.23	1.43	1.07	1.4	1.24
Y fixed	0.306	1.2	0.801	1.09	1.09	1.03	1.2	1.11	1.27
pThr fixed	0.386	0.581	0.553	1.13	0.349	0.479	0.922	0.831	1.02
pTyr fixed	0.405	0.576	0.702	1.27	1.16	0.698	0.88	0.961	0.865

TAOK1, construct: aa1-356 (from UniProt Q7L7X3)
relative phosphorylation
Details	at +1	at +2	at +3	at +4	at -1	at -2	at -3	at -4	at -5
A fixed	0.401	0.732	0.799	0.651	0.775	1.05	0.861	0.969	0.986
D fixed	0.16	0.494	0.336	0.409	0.645	0.589	0.515	0.911	0.93
E fixed	0.122	0.282	0.296	0.421	0.345	0.42	0.59	0.969	0.816
F fixed	1.53	0.505	0.853	0.835	1.07	1.74	0.817	0.95	0.933
G fixed	0.352	0.705	1.06	0.773	1.47	1.42	1.73	1.29	1.18
H fixed	0.855	1.11	0.901	1.17	1.52	0.583	0.99	1.04	1.08
I fixed	1.83	0.612	0.692	0.786	0.381	0.577	0.533	0.696	0.757
K fixed	0.504	2.83	2.32	1.79	1.15	1.02	2.24	1.29	1.36
L fixed	1.85	0.54	0.809	0.727	1.08	0.629	0.554	0.728	0.773
M fixed	2.05	0.721	0.686	0.861	1.45	0.92	0.661	0.873	0.88
N fixed	0.398	1.46	0.87	0.805	1.31	0.9	0.875	0.999	0.982
P fixed	0.319	0.777	1.13	0.711	0.47	0.858	0.988	1.01	1.02
Q fixed	0.461	0.837	0.762	0.759	0.746	0.742	0.879	0.937	0.844
R fixed	0.559	3.26	2.89	2.44	1.44	1.08	1.81	1.39	1.24
V fixed	1.21	0.723	0.602	0.635	0.419	0.658	0.505	0.765	0.821
W fixed	2.88	0.622	1.08	1.76	0.996	1.13	1.06	1.05	1.21
Y fixed	1.52	0.794	0.916	1.46	1.73	2.68	1.39	1.13	1.18
pThr fixed	0.365	0.32	0.327	0.386	0.306	0.469	0.667	0.78	0.881
pTyr fixed	0.295	0.337	0.45	0.432	1.56	0.733	0.622	0.777	0.963

CSNK1A1, construct: Full length (from UniProt P48729)
relative phosphorylation
Details	at +1	at +2	at +3	at +4	at -1	at -2	at -3	at -4	at -5
A fixed	0.898	1.02	1	1.11	1.24	2.02	0.811	1.17	1.13
D fixed	0.691	0.553	0.8	1.09	0.696	0.92	3.33	1.38	1.2
E fixed	1.21	0.343	0.994	0.958	1.01	1.44	3.21	1.74	1.17
F fixed	0.725	1.5	1.2	1.18	0.665	0.688	0.558	0.898	1.06
G fixed	0.869	0.952	1.76	1.1	1.08	1.04	0.749	1.11	1
H fixed	1.17	1.65	1.64	1.09	1.17	0.881	0.579	0.933	1.06
I fixed	1.59	1.27	0.695	0.869	0.671	0.81	0.625	0.754	0.829
K fixed	0.509	0.699	0.6	0.782	1.1	0.705	0.633	0.734	0.956
L fixed	1.12	0.726	0.754	0.865	0.76	0.837	0.581	0.677	0.969
M fixed	1.1	0.892	1.01	0.946	1.04	0.897	0.562	0.744	0.901
N fixed	1.15	0.742	0.776	0.737	1.24	1.09	0.831	0.915	0.824
P fixed	0.639	1.09	0.847	0.989	1.14	1.38	0.826	1.09	1.43
Q fixed	1.22	0.626	0.727	0.848	1.61	1.08	0.75	0.706	0.717
R fixed	0.59	0.632	0.552	0.628	1.04	0.824	0.746	0.74	0.768
V fixed	2.02	0.985	0.711	0.923	0.787	0.986	0.595	0.692	0.78
W fixed	0.738	1.59	1.38	1.46	0.898	0.635	0.628	1.67	1.16
Y fixed	0.771	1.73	1.55	1.44	0.839	0.763	0.987	1.04	1.04
pThr fixed	3.36	0.673	1.04	3.07	1.48	5.81	100	10.8	2.93
pTyr fixed	1.32	6.1	4.04	2.48	1.76	3.06	5.64	10.7	3.72
